Ends that are not written are not given here.
Legend:
[1] = system: C57BLKS/J misty male mice (m/m mice); assay: Acute decrease in body temperature (rectal temperature) by GIP; assay type: in vivo, mouse; conditions: 5 nmol/kg body weight intraperitoneal, 8-week-old m/m mice
Method: (§1) Six-week-old C57BLKS/J misty male mice (m/m mice, Oriental Yeast Co., Ltd.) were transferred (room temperature: 23° C., humidity: 55±10%, light period: 7:00 to 19:00) and were fed with food and water ad libitum. The food was CE-2 (CLEA Japan, Inc.), and the mice were acclimated for 2 weeks under the above-mentioned environment and were then used for testing.
Mouse-derived GIP (manufactured by AnaSpec, Inc.) was dissolved in physiological saline at a concentration of 500 nM to give a GIP solution.
Physiological saline (control group) or the GIP solution (5 nmol/kg body weight) (GIP administration group) was intraperitoneally administered to mice (8-week-old) in the light period (9:00 to 10:00 a.m.). Before the administration and 0.5, 2, 4.5, and 8 hours after the administration, a probe was inserted into the rectum of each mouse to measure the body temperature (rectal temperature).
The rectal temperature was measured with a digital rectal thermometer (NS-TC10, manufactured by NeuroScience, Inc.). According to Jikken Dobutsu Handobukku (Handbook of Experimental Animals) (Yokendo CO. Ltd., published in 1983), each mouse was retained under no anesthesia, and the tip of a probe (RET-3 (19×0.7 mm shaft diameter), manufactured by Physitemp instruments, LLC) was then inserted into the rectum of the mouse by 0.5 to 1 cm to measure for 15 to 30 seconds. […]

[2] = system: leptin receptor deficient C57BLKS/J male mice (db/db mice); assay: Chronic decrease in body temperature by GIP and suppression by anti-GIP antibody; assay type: in vivo, mouse; conditions: intraperitoneal every morning for 28 days, measured 1 to 2 hours after administration
Method: as §1, with “Six-week-old leptin receptor deficient” for “Six-week-old”, “C57BLKS/J” for “C57BLKS/J misty”, “(db/db” for “(m/m”
Mouse-derived GIP (manufactured by AnaSpec, Inc.) was dissolved in physiological saline at a concentration of 500 nM to give a GIP solution. Mouse-derived GIP (manufactured by AnaSpec, Inc.) and the anti-active GIP antibody produced in Production Example 1 were dissolved in physiological saline at concentrations of 500 nM and 0.1 mg/mL, respectively, and the resulting solution was incubated for 1 to 2 hours at room temperature to give a GIP-binding anti-GIP antibody solution.
Physiological saline (control group), the GIP solution (5 nmol/kg body weight) (GIP administration group), or the GIP-binding anti-GIP antibody solution (GIP: 5 nmol/kg body weight, anti-GIP antibody: 1 mg/kg body weight) (GIP+anti-GIP antibody administration group) was intraperitoneally administered to mice (8-week-old) every morning (9:00 to 10:00 a.m.). […]
(§2) The rectal temperature was measured with a digital rectal thermometer (NS-TC10, manufactured by NeuroScience, Inc.). […]

[3] = system: C57BL/6J male mice fed high fat diet; assay: Suppression of decrease in body temperature in mouse continuously taking in high fat diet; assay type: in vivo; conditions: in high fat diet for 26 weeks, measured at 34-week-old, compared to high fat diet control group
Method: Seven-week-old C57BL/6J male mice (CLEA Japan, Inc.) were transferred (room temperature: 23° C., humidity: 55±10%, light period: 7:00 to 19:00) and were fed with food and water ad libitum. The mice were acclimated using CE-2 (CLEA Japan, Inc.) as food for 1 week and were then grouped such that the body weights of each group were equivalent to each other and were fed with a normal diet containing 5% lipid (normal diet group), high fat diet containing 30% lipid (triacylglycerol) (high fat diet group), high fat diet containing 0.4% 4-hydroxybenzoic acid (2-bromobenzylidene) hydrazide (4H2BH, produced by the method described in Ling, et al., J. Med. Chem. 44: 3141-9, 2001) (4H2BH addition group), or high fat diet containing diacylglycerol (JP-A-2006-342084) instead of 30% triacylglycerol (DAG substitution group) for 26 weeks (34-week-old). During the breeding period, the body weight was measured once a week, and the food intake amount was measured twice a week. During the breeding period, the intake of the food and water was free. A probe was inserted into the rectum of each mouse at 34-week-old to measure the body temperature (rectal temperature).
as §2

[4] = molecular target: T1, GIP(1-42) (Homo sapiens, UniProt P09681); assay: Reactivity with active GIP by sandwich ELISA; assay type: binding; conditions: biotinylated antibody 1 μg/mL as detection antibody, GIP 8.2 to 2000 pg/mL
T1 sequence (P09681 52-93): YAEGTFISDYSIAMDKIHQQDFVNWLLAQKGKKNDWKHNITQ
Method: (§3) The reactivity between the monoclonal antibody prepared in Production Example 1 and active GIP was confirmed by ELISA. The amino group of the anti-active GIP monoclonal antibody was biotinylated with NH2 group biotinylation kit (manufactured by Dojindo Laboratories). ELISA was performed using the produced biotinylated anti-active GIP monoclonal antibody at 1 μg/mL instead of a detection antibody, GIP detection antibody (biotinylated anti-total GIP monoclonal antibody), included in Human (total) GIP ELISA kit (manufactured by EMD Millipore Corporation). A […] dilution series of GIP(1-42) or GIP(3-42) was prepared in 6 steps (8.2 to 2000 pg/mL) with a 2000 pg/mL solution as the highest concentration. By using an anti-total GIP monoclonal antibody (included in Human GIP (total) ELISA kit manufactured by EMD Millipore Corporation) as a capture antibody, the biotinylated anti-active GIP monoclonal antibody as a detection antibody, and a peroxidase-streptavidin conjugate for detection, sandwich ELISA was conducted to prepare a calibration curve with GIP concentration on the X-axis and 450 nm-590 nm absorbance on the Y-axis (FIG. 1).

[5] = molecular target: T2, GIP(3-42) (inactive GIP); assay: sandwich ELISA; anti-total GIP monoclonal antibody as capture, biotinylated anti-active GIP antibody at 1 ug/mL as detector
T2 peptide: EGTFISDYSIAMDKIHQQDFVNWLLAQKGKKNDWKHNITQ
Method: as §3, with “NH₂” for “NH2”

[6] = system: C57BL/6J male mice (107-week-old); assay: Suppression of decrease in body temperature by anti-GIP antibody in aged mouse; assay type: in vivo; conditions: aged C57BL/6J mice, 0.5 mg/kg intraperitoneal once a week for 8 weeks
Method: Four-week-old C57BL/6J male mice (CLEA Japan, Inc.) were transferred (room temperature: 23° C., humidity: 55±10%, light period: 7:00 to 19:00) and were fed with food (D12450K, Research Diets, Inc.) and water ad libitum for 111 weeks.
The anti-active GIP antibody produced in Production Example 1 was dissolved in physiological saline at a concentration of 0.05 mg/mL to give an anti-GIP antibody solution.
Physiological saline (control group) or the anti-GIP antibody solution (0.5 mg/kg body weight) (anti-GIP antibody administration group) was intraperitoneally administered to C57BL/6J mice (107-week-old) once a week (9:00 to 10:00 a.m.). The administration period was 8 weeks, and the probe was inserted into the rectum of each mouse chronologically (at 2 to 4 weeks intervals) to measure the body temperature (rectal temperature).
The rectal temperature was measured with a digital rectal thermometer (NS-TC10, manufactured by NeuroScience, Inc.). According to Jikken Dobutsu Handobukku (Handbook of Experimental Animals) (Yokendo CO. Ltd., published in 1983), each mouse was retained under no anesthesia, and the tip of a probe (RET-3 (19×0.7 mm shaft diameter), manufactured by Physitemp instruments, LLC) was then inserted into the rectum of the mouse by 0.5 to 1 cm to measure for 15 to 30 seconds.
The analysis results were shown as the average value (Ave.)±standard error (SE). […]

[7] = molecular target: T3, GIP(3-42) (Homo sapiens, UniProt P09681); assay: Cross-reactivity with inactive GIP by sandwich ELISA; assay type: binding; conditions: biotinylated antibody 1 μg/mL as detection antibody, GIP 8.2 to 2000 pg/mL
T3 sequence (P09681 54-93): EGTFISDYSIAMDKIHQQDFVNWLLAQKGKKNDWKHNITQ
Method: as §3

[8] = molecular target: T4, PEGylated N-terminus 15 amino acids of active GIP (GIP(1-15)) (also: PEGylated, site not given here); assay: ELISA on immobilized antigen, hybridoma culture supernatant
T4 construct: Immobilized for the ELISA; also called antigen (1) for measurement; PEGylated GIP(1-15)
T4 peptide: YAEGTFISDYSIAMD
Method: (§4) The reaction between the hybridoma culture supernatant and the antigen (1) and (2) for measurement was evaluated by ELISA using immobilized antigen (1) and (2), and hybridomas that are positive for the antigen (1) and negative for the antigen (2) were selected as anti-active GIP monoclonal antibody-producing hybridomas.

[9] = molecular target: T5, PEGylated N-terminus 13 amino acids of inactive GIP (GIP(3-15)) (also: PEGylated, site not given here); assay: as above
T5 construct: Immobilized for the ELISA; also called antigen (2) for measurement; PEGylated GIP(3-15)
T5 peptide: EGTFISDYSIAMD
Method: as §4

## GIP: Mouse-derived GIP (gastric inhibitory polypeptide, manufactured by AnaSpec, Inc.) dissolved in physiological saline at 500 nM (YAEGTFISDYSIAMDKIRQQDFVNWLLAQRGKKSDWKHNITQ)
[1]; after 2 hours
  decrease in the body temperature (rectal) compared to the control group: 0.83 °C
[1]; after 4.5 hours
  decrease in the body temperature (rectal) compared to the control group: 0.81 °C
[2]
  chronic change in body temperature (rectal) compared to the control group: chronic decrease in the body temperature was observed

## O=C(NN=Cc1ccccc1Br)c1ccc(O)cc1 [4H2BH, 4-hydroxybenzoic acid (2-bromobenzylidene) hydrazide]
[3]
  decrease in body temperature (rectal) due to high fat diet intake: suppressed

B1: anti-active GIP monoclonal antibody produced by hybridoma 9B9H5-B9 line (Production Example 1) (antibody, V domains shown)
VH: QVQLQQPGAELVKPGASVKLSCKASGYTFTSFWMHWVIQRPGQGLEWIGEMNPSDGRTHFNEKFKTKATLTIDTSSNTAYMELNSLTSEDSAVYYCARRMEDWGQGTLVTVSA
VL: DIKMTQSPSSMYASLGERVTITCKASQDINSYLGWFQQKPGKSPKTLIYGANRLVDGVPSRFSGSGSGQDYSLTISSLEYDDMGIYYCLQYDEFPLTFGAGTKLELKR
notes: in the screening and cloning ELISA it was hybridoma culture supernatant; also called anti-active GIP antibody
[4]
  reactivity with GIP(1-42) (450 nm-590 nm absorbance): capable of specifically detecting GIP(1-42)
[5]
  binding result: no binding (tested: 2000 pg/mL (highest GIP concentration))
[6]
  body temperature (rectal) compared to the control group and the non-administration group: significantly high
  decrease in the body temperature with aging: suppression of a decrease in the body temperature with aging was observed
[7]
  cross-reactivity with GIP(3-42) (450 nm-590 nm absorbance): does not show cross-reactivity with GIP(3-42)
[8]
  binding result: binds
[9]
  binding result: no binding

From patent US20190330332A1, “Hypothermia Ameliorating Agent” (Kao Corporation, priority 2016, published 2019)
